# Source: patent publication US8980955, “Small molecule inhibitors of replication protein A that also act synergistically with cisplatin” (Indiana University Research and Technology)
# T1: RPA p70 DBD-A/B (Homo sapiens, UniProt P27694 P27694:181-422)
# T1 chain: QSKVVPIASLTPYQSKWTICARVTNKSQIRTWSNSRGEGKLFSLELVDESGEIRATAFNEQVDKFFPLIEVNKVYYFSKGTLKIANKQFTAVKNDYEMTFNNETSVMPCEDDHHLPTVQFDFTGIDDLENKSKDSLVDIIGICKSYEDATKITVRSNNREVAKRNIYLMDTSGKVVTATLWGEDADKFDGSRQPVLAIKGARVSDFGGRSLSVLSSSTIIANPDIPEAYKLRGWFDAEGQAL
# Assays:
# EcSSB = EcSSB (Escherichia coli, UniProt P0AGE0 P0AGE0:2-178); assay: EMSA; 25 nM DNA, 3.3 nM SSB tetramer, 20 mM HEPES pH 7.5, 100 mM NaCl; unaffected by CheSS19, MCI13E, MCI13F; conditions: tags: Enzymatics, Beverly MA; chain copies: 4 stated; label: 5'-32P
# EcSSB, sequence (P0AGE0 2-178, one chain of several): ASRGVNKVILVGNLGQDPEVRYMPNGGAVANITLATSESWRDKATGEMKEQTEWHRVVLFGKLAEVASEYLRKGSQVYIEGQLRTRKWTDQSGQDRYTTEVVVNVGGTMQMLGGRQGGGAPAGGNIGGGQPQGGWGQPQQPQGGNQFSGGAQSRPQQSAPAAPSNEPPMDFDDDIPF
# Method: Referring now to FIG. 6B. CheSS19 titration in EcSSB DNA-binding reactions. CheSS19 (0, 25, 50, 100, and 200 μM) was pre-incubated with EcSSB and binding reactions were carried out. Referring now to FIG. 6C. Titration of MCI13E and MCI13F in EcSSB DNA-binding reactions. Concentrations of MCI13E/F used were: 0, 25, 50, 100, and 200 μM. In all panels, the 'Free' ssDNA is indicated with an arrow and the 'Bound' ssDNA is indicated by brackets. All reactions were performed in the same order and manner as the RPA binding reactions. EcSSB binding was unaffected by CheSS19 and the MCI13E and MCI13F compounds (FIGS. 6A and B).
# EMSAs were performed similarly to those for the RPA constructs, with the following exceptions. Reactions contained 25 nM of 5'-[^32P]-labeled 3Pc3 ssDNA and 3.3 nM (assuming homotetramer formation) SSB protein (Enzymatics, Beverly, Mass.). Reactions (20 μL) were carried out in 20 mM HEPES, pH 7.5, 1 mM DTT, 0.01% NP-40, 100 mM NaCl, and resolved by 6% native polyacrylamide gel electrophoresis at 25 mA for 2 hours. Gels were dried and quantified via phosphorimager analysis and ImageQuant software (Molecular Dynamics).
# [1] = target: T2, RPA heterotrimer (p70/p34/p14, full-length) (Homo sapiens, UniProt P27694;P15927;P35244 P27694:1-616,P15927:1-270,P35244:1-121); assay: EMSA; 12.5 nM DNA; binding inhibited by MCI13E, MCI13F and CheSS19; conditions: tags: untagged; label: 5'-32P
# T2 sequence (P27694 whole entry, chain 1 of 3): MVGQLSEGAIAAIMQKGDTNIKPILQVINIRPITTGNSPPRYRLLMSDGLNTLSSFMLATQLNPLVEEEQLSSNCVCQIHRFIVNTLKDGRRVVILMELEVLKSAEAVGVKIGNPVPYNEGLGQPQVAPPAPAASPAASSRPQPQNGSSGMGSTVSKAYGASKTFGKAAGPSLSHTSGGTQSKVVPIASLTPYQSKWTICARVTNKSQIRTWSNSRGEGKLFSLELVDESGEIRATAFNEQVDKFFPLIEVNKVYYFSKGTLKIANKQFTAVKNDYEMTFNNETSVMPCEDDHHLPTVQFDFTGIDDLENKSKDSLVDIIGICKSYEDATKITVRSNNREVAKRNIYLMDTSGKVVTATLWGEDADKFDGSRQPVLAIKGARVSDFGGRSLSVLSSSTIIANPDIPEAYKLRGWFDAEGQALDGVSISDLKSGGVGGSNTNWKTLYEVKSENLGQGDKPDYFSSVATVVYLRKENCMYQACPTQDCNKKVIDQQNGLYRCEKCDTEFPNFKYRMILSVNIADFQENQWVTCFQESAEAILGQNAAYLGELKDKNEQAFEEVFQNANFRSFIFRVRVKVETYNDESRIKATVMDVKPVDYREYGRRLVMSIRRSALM
# T2 sequence (P15927 whole entry, chain 2 of 3): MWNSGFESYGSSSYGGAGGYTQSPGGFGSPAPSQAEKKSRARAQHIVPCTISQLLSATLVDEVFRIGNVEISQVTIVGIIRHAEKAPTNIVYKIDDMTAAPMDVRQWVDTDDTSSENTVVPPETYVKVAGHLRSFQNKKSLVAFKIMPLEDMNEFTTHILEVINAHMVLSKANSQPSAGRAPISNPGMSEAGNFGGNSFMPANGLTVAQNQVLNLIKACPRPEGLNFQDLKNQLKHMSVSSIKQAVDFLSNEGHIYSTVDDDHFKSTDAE
# T2 sequence (P35244 whole entry, chain 3 of 3): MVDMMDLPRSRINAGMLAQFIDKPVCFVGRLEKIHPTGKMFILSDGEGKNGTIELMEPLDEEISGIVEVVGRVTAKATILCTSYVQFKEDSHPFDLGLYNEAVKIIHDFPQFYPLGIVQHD
# RPA p70 DBD-A/B [2] = target: T1, RPA p70 DBD-A/B; assay: FP; 20 nM DNA; 10 mM HEPES pH 7.2, 100 mM NaCl; inhibited irreversibly by CheSS19; conditions: tags: His (pET15b, nickel-NTA purified); label: fluorescein (F)
# Method: In an experiment reported herein, DBD-A/B was incubated with CheSS 19 and then the reaction mix dialyzed overnight to remove dissociable inhibitor.
# Referring now to FIG. 3D. Bar graph showing results of fluorescence polarization analysis of CheSS19 inactivated RPA DBD-A/B. Referring now to FIG. 3D, RPA DBD-A/B was pre-incubated with vehicle (1% DMSO) or CheSS19 (1pmol in 1% DMSO) for 30 minutes at 37° C. Following incubation, the reaction mix was dialyzed versus H1 buffer overnight at 4° C. The protein was recovered and DNA binding activity measured by FP analysis of binding to an F-dT12 substrate was performed as described in "Methods". Bar 1, DNA control, Bar 2, control vehicle treated DBD-A/B, Bar 3, Chess19 treated DBD-A/B. The data represent the mean and range of two independent experiments.
# Fluorescence polarization experiments were preformed as previously described (21). SMIs were diluted in H1 buffer (10 mM HEPES, pH 7.2, 1 mM DTT, 0.01% NP-40 and 100 mM NaCl) and the final DMSO concentration was kept below 1%.
# [3] = target: T2, RPA heterotrimer (p70/p34/p14, …); assay: EMSA; inhibited irreversibly by MCI13E; conditions: tags: untagged; label: 5'-32P
# Method: Considering the differential inhibition observed between the anhydride and halo esters with respect to specificity, experiments were carried out to determine if the isoborneol halo-esters inhibited full-length RPA in an irreversible fashion. Full-length RPA was mixed with MCI13E or vehicle control and the reaction mixtures were then dialyzed overnight. Referring now to FIG. 5. Gel showing irreversible inactivation of full-length heterotrimeric RPA by MCI13E. Incubation of RPA with MCI13E, dialysis and recovery was performed as described for FIG. 3. DNA binding activity of the resulting protein was assessed by EMSA using a 5'-[^32P]-ss 34-base DNA as described in "Methods". Lanes 1-4 pre-dialysis, lanes 5 and 6 post dialysis. […] In fact, the degree of inhibition was similar to that observed for the MCI13E treated RPA before dialysis (FIG. 5 lanes 3 and 4). […] This activity is consistent with MCI13E and F and their reaction with RPA serving as a pharmacodynamic marker of RPA inhibition or as a biomarker for RPA expression and activity.
# RPA p70 DBD-A/B [4] = target: T1, RPA p70 DBD-A/B; assay: EMSA; not inhibited by MCI13E or MCI13F; conditions: tags: His (pET15b, nickel-NTA purified); label: 5'-32P
binder,measurement,setting,value
GGAGACCGAAGAGGAAAAGAAGGAGAGAGG (ssDNA) [3Pc3 30-mer],binding result,EcSSB,binds
same,binding result,[1],binds
TTTTTTTTTTTT (ssDNA) [F-dT12],binding result,RPA p70 DBD-A/B [2],binds
CTAGAAAGGGGGAAGAAAGGGAAGAGGCCAGAGA (ssDNA) [34-mer],binding result,[3],binds
TTTTTTTTTTTT (ssDNA) [dT12],binding result,RPA p70 DBD-A/B [4],binds
